Measured values from PMC6155056 (Science Advances, 2018).

How the values were obtained:
Experiment in all cases: cryo-EM structure
[1] = molecular target: T1, CVA10 capsid protein VP2 (strain CVA10-FJ-01) (Coxsackievirus A10, strain CVA10-FJ-01 …, strain)
T1 chain: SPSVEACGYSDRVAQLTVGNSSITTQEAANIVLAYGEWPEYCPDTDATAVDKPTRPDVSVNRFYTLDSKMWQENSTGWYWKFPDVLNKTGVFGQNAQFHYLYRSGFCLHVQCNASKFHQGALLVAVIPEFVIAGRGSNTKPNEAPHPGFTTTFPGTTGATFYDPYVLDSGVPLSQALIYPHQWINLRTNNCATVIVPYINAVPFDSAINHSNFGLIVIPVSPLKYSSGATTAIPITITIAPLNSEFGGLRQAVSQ

[2] = molecular target: T2, CVA10 capsid protein VP3 (strain CVA10-FJ-01) (Coxsackievirus A10, strain CVA10-FJ-01 …, strain)
T2 chain: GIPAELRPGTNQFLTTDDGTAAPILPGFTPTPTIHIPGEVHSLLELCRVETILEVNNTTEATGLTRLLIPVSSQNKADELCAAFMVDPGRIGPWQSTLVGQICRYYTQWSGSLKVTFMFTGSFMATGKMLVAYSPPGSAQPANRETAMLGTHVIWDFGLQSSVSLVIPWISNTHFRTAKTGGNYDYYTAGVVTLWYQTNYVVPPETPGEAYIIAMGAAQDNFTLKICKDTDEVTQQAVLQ

[3] = molecular target: T3, CVA10 procapsid (strain CVA10-FJ-01) (Coxsackievirus A10, strain CVA10-FJ-01 …, strain)
T3 chain 1: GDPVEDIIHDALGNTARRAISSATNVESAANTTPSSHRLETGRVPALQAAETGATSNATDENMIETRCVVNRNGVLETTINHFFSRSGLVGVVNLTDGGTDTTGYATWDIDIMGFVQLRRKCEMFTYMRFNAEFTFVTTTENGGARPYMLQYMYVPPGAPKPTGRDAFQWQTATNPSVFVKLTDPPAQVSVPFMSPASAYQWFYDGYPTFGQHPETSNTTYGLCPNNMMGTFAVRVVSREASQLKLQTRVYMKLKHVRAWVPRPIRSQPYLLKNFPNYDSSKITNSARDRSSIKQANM
T3 chain 2: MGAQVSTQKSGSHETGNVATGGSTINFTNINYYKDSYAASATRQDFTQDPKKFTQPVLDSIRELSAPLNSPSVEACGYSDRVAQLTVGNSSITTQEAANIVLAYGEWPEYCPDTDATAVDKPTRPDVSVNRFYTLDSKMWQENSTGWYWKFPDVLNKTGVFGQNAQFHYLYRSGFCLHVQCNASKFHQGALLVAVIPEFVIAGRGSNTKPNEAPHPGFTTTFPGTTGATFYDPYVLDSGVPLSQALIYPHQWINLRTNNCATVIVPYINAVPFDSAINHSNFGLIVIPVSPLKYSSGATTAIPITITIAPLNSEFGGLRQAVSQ
T3 chain 3: T2 chain

[4] = molecular target: T4, CVA10 A-particle (strain CVA10-FJ-01) (Coxsackievirus A10, strain CVA10-FJ-01 …, strain)
T4 chain 1: T3 chain 1
T4 chain 2: T1 chain
T4 chain 3: T2 chain

[5] = molecular target: T5, CVA10 mature virion (strain CVA10-FJ-01) (Coxsackievirus A10, strain CVA10-FJ-01 …, strain)
T5 chain 1: T3 chain 1
T5 chain 2: T1 chain
T5 chain 3: T2 chain
T5 chain 4: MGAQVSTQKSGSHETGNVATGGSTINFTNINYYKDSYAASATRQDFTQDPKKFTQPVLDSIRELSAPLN

[6] = molecular target: T6, CVA10 capsid protein VP1 (strain CVA10-FJ-01) (Coxsackievirus A10, strain CVA10-FJ-01 …, strain)
T6 chain: T3 chain 1

B1: Fab 2G8 (Fab, V domains shown)
VH: EVQLQQSGPDLVKTGASVRVSCRASGYSFTSYYIHWVRLNHGKSLEWIGYINCYNGDITYNQKFKGKASFTLDTSSSTAYMEFNRLTSEDSAVYYCTRERYGTPHYHFDVWGAGP
VL: DVLMTQTPLSLPVSLGHQASISCRSSQSIVHSNGNTYLEWYLQKPGQSPKLLIYTVSNRFSGVPDRFSGSGSGTDFTLRITSVEAEDLGVYYCFQGSHIPYTFGGGTKLEIK
binding result [1]: binds
binding result [2]: binds
stoichiometry N [3]: 60 copies per particle
stoichiometry N [4]: 60 copies per particle
stoichiometry N [5]: 60 copies per particle
binding result [6]: binds
